B1: N142P|I144P|N377P, Q8GB52 (parent)
chain: MLKKVLSCCIAATFGIYSASSLAQSSVINSTENSQQPIAPLVLASSDDAITDRYIVVLKQPQMLMNDAAGLQQFTQQTVGLMANSFSIKTDDVFDSSIIGFVANLDALQLKQLRRDSRVEYIEQDQILSIDPVVSNEAVQSNAIWGLDRIDQRNLPLDRNYNANFDGFGVTAYVIDTGVNNNHEEFGGRSVSGYDFVDNDADSSDCNGHGTHVAGTIGGSQYGVAKNVNIVGVRVLSCSGSGTTSGVISGVDWVAQNASGPSVANMSLGGGQSTALDSAVQGAIQSGVSFMLAAGNSNADACNTSPARVPSGVTVGSTTSSDSRSSFSNWGSCVDLFAPGSQIKSAWYDGGYKTISGTSMATPHVAGVAALYLQENNGLTPLQLTGLLNSRASENKVSDTRGTTNKLLYSLADSGCEPDCGGPTPGPDPDGKLVSGVPVNGLSGSRGQKDYFYMDLQQGQQLTVVTIGGTGDADLYLRFGDKPTLNTWDCRPYRSGNSETCTVNVTQSGRYHVMLNAYSAYSGLTLQANF

Variants of: B1
Conditions: Vibrio sp. PA-44, pH 8.6, Thermal, structure 1SH7, whole UniProt chain shown
[1] = CD, Glycine 25 mM, NaCl and CaCl2 100 mM and 15 mM
[2] = CD, glycine, Nacl / Cacl2 100000 / 15000, transition: 2, reversible: no
[3] = DSC, Glycine 25 mM, NaCl and CaCl2 100 mM and 15 mM
[4] = DSC, glycine, Nacl / Cacl2 100000 / 15000, transition: 2, reversible: no

Variant	Tm [1] [°C]	change of melting temperature, mutant - wild type (higher = more stable) [1] [°C]	Tm [2] [°C]	change of melting temperature, mutant - wild type (higher = more stable) [2] [°C]	Tm [3] [°C]	change of melting temperature, mutant - wild type (higher = more stable) [3] [°C]	unfolding enthalpy (calorimetric) [3] [kcal/mol]	Tm [4] [°C]	change of melting temperature, mutant - wild type (higher = more stable) [4] [°C]	unfolding enthalpy (calorimetric) [4] [kcal/mol]
MLKKVLSCCIAATFGIYSASSLAQSSVINSTENSQQPIAPLVLASSDDAITDRYIVVLKQPQMLMNDAAGLQQFTQQTVGLMANSFSIKTDDVFDSSIIGFVANLDALQLKQLRRDSRVEYIEQDQILSIDPVVSNEAVQSPAPWGLDRIDQRNLPLDRNYNANFDGFGVTAYVIDTGVNNNHEEFGGRSVSGYDFVDNDADSSDCNGHGTHVAGTIGGSQYGVAKNVNIVGVRVLSCSGSGTTSGVISGVDWVAQNASGPSVANMSLGGGQSTALDSAVQGAIQSGVSFMLAAGNSNADACNTSPARVPSGVTVGSTTSSDSRSSFSNWGSCVDLFAPGSQIKSAWYDGGYKTISGTSMATPHVAGVAALYLQENPGLTPLQLTGLLNSRASENKVSDTRGTTNKLLYSLADSGCEPDCGGPTPGPDPDGKLVSGVPVNGLSGSRGQKDYFYMDLQQGQQLTVVTIGGTGDADLYLRFGDKPTLNTWDCRPYRSGNSETCTVNVTQSGRYHVMLNAYSAYSGLTLQANF [N142P I144P N377P]	68.8	6.9	68.8	6.9	72	8.1	163	72	8.1	162
MLKKVLSCCIAATFGIYSASSLAQSSVINSTENSQQPIAPLVLASSDDAITDRYIVVLKQPQMLMNDAAGLQQFTQQTVGLMANSFSIKTDDVFDSSIIGFVANLDALQLKQLRRDSRVEYIEQDQILSIDPVVSNEAVQSPAIWGLDRIDQRNLPLDRNYNANFDGFGVTAYVIDTGVNNNHEEFGGRSVSGYDFVDNDADSSDCNGHGTHVAGTIGGSQYGVAKNVNIVGVRVLSCSGSGTTSGVISGVDWVAQNASGPSVANMSLGGGQSTALDSAVQGAIQSGVSFMLAAGNSNADACNTSPARVPSGVTVGSTTSSDSRSSFSNWGSCVDLFAPGSQIKSAWYDGGYKTISGTSMATPHVAGVAALYLQENNGLTPLQLTGLLNSRASENKVSDTRGTTNKLLYSLADSGCEPDCGGPTPGPDPDGKLVSGVPVNGLSGSRGQKDYFYMDLQQGQQLTVVTIGGTGDADLYLRFGDKPTLNTWDCRPYRSGNSETCTVNVTQSGRYHVMLNAYSAYSGLTLQANF [N142P]	64.8	2.9	–	–	66.8	2.9	128	66.8	2.9	127
MLKKVLSCCIAATFGIYSASSLAQSSVINSTENSQQPIAPLVLASSDDAITDRYIVVLKQPQMLMNDAAGLQQFTQQTVGLMANSFSIKTDDVFDSSIIGFVANLDALQLKQLRRDSRVEYIEQDQILSIDPVVSNEAVQSPAPWGLDRIDQRNLPLDRNYNANFDGFGVTAYVIDTGVNNNHEEFGGRSVSGYDFVDNDADSSDCNGHGTHVAGTIGGSQYGVAKNVNIVGVRVLSCSGSGTTSGVISGVDWVAQNASGPSVANMSLGGGQSTALDSAVQGAIQSGVSFMLAAGNSNADACNTSPARVPSGVTVGSTTSSDSRSSFSNWGSCVDLFAPGSQIKSAWYDGGYKTISGTSMATPHVAGVAALYLQENNGLTPLQLTGLLNSRASENKVSDTRGTTNKLLYSLADSGCEPDCGGPTPGPDPDGKLVSGVPVNGLSGSRGQKDYFYMDLQQGQQLTVVTIGGTGDADLYLRFGDKPTLNTWDCRPYRSGNSETCTVNVTQSGRYHVMLNAYSAYSGLTLQANF [N142P I144P]	67.8	5.9	67.8	5.9	72	8.1	155	72	8.1	154
